Target: αB-crystallin deletion mutant lacking residues 54FLRAPSWF61 (αBΔ54–61) (human) (UniProt P02511)
Test: SEC-MALS

## αB-crystallin deletion mutant lacking residues 54FLRAPSWF61 (αBΔ54–61) (from UniProt P02511 1-175) (natural protein)
  stoichiometry N (subunits/oligomer): 20

Reference: article PMC3997080
